Assay results as given in US20220257706A1, “EPIDERMAL GROWTH FACTOR RECEPTOR (EGFR) LIGANDS” (NANYANG TECHNOLOGICAL UNIVERSITY, priority 2019, published 2022).

Columns and labels:
[1] = molecular target: EGFR of HaCaT (human keratinocyte) cells (human), P00533; assay: cell-based or functional assay
EGFR-Fc, P00533 = assay: TR-FRET competitive displacement of biotin-EGF from EGFR-Fc

QCKPNGAKCTEISIPPCCSNFCLRYAGQKSGTCANR (modifications not checked) [bleogen pB1]
HaCaT cell proliferation (crystal violet, 72 h), EC50 [1]: 130 nM | IC50 (EGFR-Fc, P00533): 1720 nM
